Reference: patent publication US20230183665A1, “THERMOSTABLE GLUCOCEREBROSIDASE” (TEIKYO UNIVERSITY, priority 2020, published 2023)

Experiments:
[1] = Optimum temperature for glucocerebrosidase activity (Examples 5, 12, 20); assay type: biochemical; settings: 100 μM cerebroside B, pH 5.5, 15 minutes at each temperature, average of three tests
Experimental: The glucocerebrosidase activity of the fraction was measured as follows: a predetermined amount of sample was added to a 50 mM acetate buffer solution (pH 5.5) containing 100 μM glucosylceramide (cerebroside B), 0.1% Tween 20, and 0.05% sodium cholate, and incubated at 37° C. for 15 minutes. Subsequently, a 4-fold amount of ethanol was added to the obtained reaction solution, mixed therewith, and then centrifuged at 15000 rpm for 20 minutes. The centrifuged supernatant was subjected to high-performance liquid chromatography analysis. In the high-performance liquid chromatography analysis, the sample was injected to TSKgel ODS-120T column (4.6 mm×30 cm), and a solvent having an ethanol concentration of 83% was flowed at a flow rate of 0.8 mL/min, followed by detection in a UV detector (ultraviolet absorption wavelength: 215 nm) to thereby measure the amount of ceramide newly generated through enzymatic reaction. The amount of ceramide was determined by using, as a standard, ceramide generated from cerebroside B by imiglucerase (manufactured by Sanofi S. A.), human-derived glucocerebrosidase. The molecular weight of the generated ceramide was examined by negative LC-MS (manufactured by Agilent Technologies, Inc.) to thereby confirm that it was ceramide generated from cerebroside B (ESI-MS m/z: 564.5[M-H]^−). Glucocerebrosidase activity per mL of the enzyme solution was calculated when the amount of the enzyme that generated 1 μmol of ceramide for 1 minute in the enzymatic reaction solution was defined as 1 unit (U).
RGC1 obtained in Example 2 and imiglucerase were each added to a 50 mM acetate buffer solution (pH 5.5) containing 100 μM glucosylceramide (cerebroside B), 0.1% Tween 20, and 0.05% sodium cholate, and incubated at each temperature for 15 minutes. Subsequently, a 4-fold amount of ethanol was added to the obtained reaction solution, mixed therewith, and then centrifuged under a condition of 15000 rpm for 20 minutes. The supernatant was subjected to high-performance liquid chromatography analysis to measure the amount of ceramide generated through enzymatic reaction. The high-performance liquid chromatography analysis was carried out in the same manner as in Example 2. The amount of ceramide and enzymatic activity were also calculated in the same manner as in Example 2. A temperature that attained the highest glucocerebrosidase activity was regarded as the optimum temperature. This test was conducted three times, and an average value was determined therefrom.
The optimum temperatures for the glucocerebrosidase activity of SGC1 obtained in Example 11 and imiglucerase were confirmed by the same method as in Example 5.
Enzyme extracts derived from various plants which were obtained in accordance with Example 19, the purified rice-derived RGC1 mentioned above and the purified soybean-derived SGC1 mentioned above were each added to a 50 mM sodium acetate buffer solution (pH 5.5) containing 100 μM glucosylceramide (cerebroside B), 0.1% Tween 20, and 0.05% sodium cholate, and incubated at each temperature for 15 minutes. Subsequently, a 4-fold amount of ethanol was added to the obtained reaction solution, mixed therewith, and then centrifuged at 15000 rpm for 20 minutes. The supernatant was subjected to high-performance liquid chromatography analysis to measure the amount of ceramide generated through enzymatic reaction. The high-performance liquid chromatography analysis was carried out in the same manner as in Example 5. The amount of ceramide and enzymatic activity were also calculated in the same manner as in Example 5. As a result, a temperature that attained the highest glucocerebrosidase activity was regarded as the optimum temperature. This test was conducted three times, and an average value was determined therefrom.

[2] = Thermostability: relative residual glucocerebrosidase activity after incubation at pH 5 and pH 7 (Examples 6, 13); assay type: physicochemical; settings: 37° C.; pH 5 for 6 to 106 hours, pH 7 for 4 to 48 hours; FIGS. 1 and 2
Experimental: The glucocerebrosidase activity of the fraction was measured as follows: a predetermined amount of sample was added to a 50 mM acetate buffer solution (pH 5.5) containing 100 μM glucosylceramide (cerebroside B), 0.1% Tween 20, and 0.05% sodium cholate, and incubated at 37° C. for 15 minutes. Subsequently, a 4-fold amount of ethanol was added to the obtained reaction solution, mixed therewith, and then centrifuged at 15000 rpm for 20 minutes. The centrifuged supernatant was subjected to high-performance liquid chromatography analysis. […] The amount of ceramide was determined by using, as a standard, ceramide generated from cerebroside B by imiglucerase (manufactured by Sanofi S. A.), human-derived glucocerebrosidase. […] Glucocerebrosidase activity per mL of the enzyme solution was calculated when the amount of the enzyme that generated 1 μmol of ceramide for 1 minute in the enzymatic reaction solution was defined as 1 unit (U).
RGC1 obtained in Example 2 and imiglucerase were each incubated at pH 5 simulating lysosome (50 mM acetate buffer solution (pH 5.0) containing 0.1% Triton X-100 and 0.05% sodium cholate) at 37° C. for 6 to 106 hours or at pH 7 simulating cytoplasm (50 mM potassium phosphate buffer solution (pH 7.0) containing 0.1% Triton X-100 and 0.05% sodium cholate) at 37° C. for 4 to 48 hours. […] This test was conducted three times, and an average value was determined therefrom. […]

B1: RGC1: rice-derived glucocerebrosidase purified from rice stems; identical to Os3BGlu6, belongs to GH1; SEQ ID NO: 1 (protein)
chain: MGRIKSSSGRCSTARLEAVAVLVVVFGVASSSLRGCIAQQSGGGLTRGSFPEGFVFGTASAAYQYEGAVKEDGRGQTIWDTFAHTFGKITDFSNADVAVDQYHRFEEDIQLMADMGMDAYRFSIAWSRIYPNGVGQVNQAGIDHYNKLIDALLAKGIQPYVTLYHWDLPQALEDKYKGWLDRQIVDDFAAYAETCFREFGDRVKHWITLNEPHTVAIQGYDAGLQAPGRCSVLLHLYCKAGNSGTEPYVVAHHFILAHAAAASIYRTKYKATQNGQLGIAFDVMWFEPMSNTTIDIEAAKRAQEFQLGWFADPFFFGDYPATMRARVGERLPRFTADEAAVVKGALDFVGINHYTTYYTRHNNTNIIGTLLNNTLADTGTVSLPFKNGKPIGDRANSIWLYIVPRGMRSLMNYVKERYNSPPVYITENGMDDSNNPFISIKDALKDSKRIKYHNDYLTNLAASIKEDGCDVRGYFAWSLLDNWEWAAGYSSRFGLYFVDYKDNLKRYPKNSVQWFKALLKT
modifications: Glycine max (L.) Merr. Enrei
For B1, the “Optimum temperature (° C.)” value ([1]; Example 5) was 54.0 °C, the “Optimum temperature (° C.)” value ([1]; Example 20) was 54.0 °C and the “stability (relative residual activity) compared with imiglucerase” value [2] was “evidently superior in stability to imiglucerase”.
